Here are results for six molecules from PMC11633198, “Vibrio cholerae CsrA controls ToxR levels by increasing the stability and translation of toxR mRNA”.

Positions count from the first letter of the chain named.

For data set [1], the target named is T1, CsrA (Vibrio cholerae, UniProt Q9KUH3 1-65). Description: EMSA; 1 nM RNA. Particulars: protein: recombinant; tags: N-terminal 6xHis removed by TEV protease; chain copies: 2; label: 5' biotin; partly folded, stem-loops predicted by mfold.
Data set [2] addresses T1, CsrA. Description: EMSA; 1 nM RNA, 640 nM CsrA; also no binding when mixed with CsrB-left. As to conditions: protein: recombinant; tags: N-terminal 6xHis removed by TEV protease; chain copies: 2; label: 3' biotin; hairpin (mfold).
In data set [3] the target is T1, CsrA. Description: EMSA; 1 nM RNA, 640 nM CsrA; also no binding when mixed with CsrB-right. As to conditions: protein: recombinant; tags: N-terminal 6xHis removed by TEV protease; chain copies: 2; label: 3' biotin; hairpin (mfold). In general terms: In EMSA bound probe runs differently from free probe, usually more slowly.
In data set [4] the target is T1, CsrA. Description: EMSA; 0.1 nM RNA, 0-640 nM CsrA (Fig 3B); 1 nM RNA in Fig 3C. As to conditions: protein: recombinant; tags: N-terminal 6xHis removed by TEV protease; chain copies: 2; label: 3' biotin; two adjacent hairpins (mfold).
In data set [5] the target is T1, CsrA. Description: EMSA; 1 nM RNA, 640 nM CsrA. Particulars: protein: recombinant; tags: N-terminal 6xHis removed by TEV protease; chain copies: 2; label: 3' biotin; two adjacent hairpins (mfold).

T1 sequence (Q9KUH3 whole entry): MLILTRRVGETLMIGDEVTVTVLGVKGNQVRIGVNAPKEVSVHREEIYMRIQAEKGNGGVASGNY

B1: toxR 5'UTR (ssRNA)
RNA: GCAUUUUUAUCAAAGAAGAUAAAAAAACCAGUAAAGUCUGAGUGUUGGGACAGGGAGAUACUGGGACAUUAGAUGUUCGGAUUAGGACACAACUCAAAAGAGAUAUCGAUG
As to B1, in the data set with CsrA [1], the binding result is “binds”.

B2: CsrB-right (structured_RNA)
RNA: UUUUAGUAGCUGGAAUGCUGCGA
With B2, the binding result with CsrA [2] was “no binding”.

B3: CsrB-left (structured_RNA)
RNA: UUAGAUGCAGGGAGCACCUUU
B3: the binding result in the data set with CsrA [3] is “no binding”.

B4: CsrB oligo (structured_RNA)
RNA: UUAGAUGCAGGGAGCACCUUUUAGUAGCUGGAAUGCUGCGA
With B4, the binding result with CsrA [4] was “binds”.

B5: mut-left (structured_RNA)
RNA: B4 RNA with G10U, G11A, G12U
Consider B5, for which the binding result with CsrA [5] is on record as “no binding”.

B6: CsrB-mut (oligo-mut) (structured_RNA)
RNA: B4 RNA with G10U, G11A, G12U, G30A, G31U
Take B6: the binding result with CsrA [5] was “no binding”.
